Assay results as given in patent US20240343799A1 (Innovent, published 2024).

T1: CD79b on the surface of B-cell non-Hodgkin's lymphoma cells (human, UniProt P40259 29-229)
T1 construct: whole, on cells; Endogenous CD79b of the cell lines; on cells it stands in the B cell receptor complex with CD79a; also called CD79b on Ramos cells; CD79b on BJAB cells
T1 sequence (looked up): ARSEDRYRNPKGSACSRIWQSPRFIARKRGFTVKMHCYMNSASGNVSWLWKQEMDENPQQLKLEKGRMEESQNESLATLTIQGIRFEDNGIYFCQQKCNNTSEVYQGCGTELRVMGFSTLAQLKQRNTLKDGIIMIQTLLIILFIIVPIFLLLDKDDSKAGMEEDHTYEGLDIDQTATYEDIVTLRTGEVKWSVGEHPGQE

T2: monkey CD3E & CD3G-biotin (Sino biological) (cynomolgus monkey, UniProt Q95LI5 22-117; Q95LI7 23-113, limits assumed)
T2 construct: also called Cyno CD3E&G; monkey CD3E&G
T2 sequence (looked up) 1: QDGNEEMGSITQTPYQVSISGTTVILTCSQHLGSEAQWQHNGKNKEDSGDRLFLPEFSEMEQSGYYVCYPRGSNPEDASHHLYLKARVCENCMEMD
T2 sequence (looked up) 2: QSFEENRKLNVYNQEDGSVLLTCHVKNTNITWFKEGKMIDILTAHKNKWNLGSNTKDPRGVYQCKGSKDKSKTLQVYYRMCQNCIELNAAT

T3: human CD79b-his (Sino biological) (human, UniProt P40259 29-159)
T3 construct: Amine-coupled to the Biacore chip (about 50 RU); not shown: His tag
T3 sequence (looked up): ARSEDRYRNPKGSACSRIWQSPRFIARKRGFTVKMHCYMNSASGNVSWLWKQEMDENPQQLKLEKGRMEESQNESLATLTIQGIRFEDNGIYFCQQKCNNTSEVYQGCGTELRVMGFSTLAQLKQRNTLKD


What was measured:
[1] = target: T1, CD79b on the surface of B-cell …; assay: flow cytometry on BJAB cells, goat anti-human IgG PE
Procedure: (§1) The binding ability of the CD79b/CD3 bispecific antibodies for CD79b-positive B-cell non-Hodgkin's lymphoma cell lines was detected by flow cytometry.
(§2) BJAB (AddexBio, USA, Cat #C0003016) and WSU-DLCL2 (Nanjing Kebai Biotechnology Co., Ltd., Cat #CBP60273) were cultured and passaged according to the conventional procedures. Cells were counted after centrifugation and resuspension, adjusted to a density of 4×10⁶ cells/mL, poured into a loading tank, and seeded to a 96-well plate at 50 μL/well using a multichannel pipettor. 50 μL of the antibody sample diluted in gradient was added to the 50 μL of cells in each well, and the mixture was then incubated in an incubator at 5% CO₂ and 37° C. for 30 min. The mixture was centrifuged at 400 g for 5 min, then 200 μL of PBS was added, and the resulting mixture was centrifuged at 400 g for 5 min. This procedure was repeated 3 times. Goat anti-human IgG PE (1:200) was added, and the mixture was incubated for 30 min in the dark at room temperature. The mixture was washed with 200 μL of PBS twice, centrifuged, and then resuspended in 100 μL of PBS, and the values were read using a flow cytometer. The values were fitted to obtain a curve and EC₅₀ values were calculated.

[2] = target: T2, monkey CD3E & CD3G-biotin (Sino …); assay: SPR (Biacore T200), biotinylated monkey CD3E&CD3G on streptavidin chip, antibody injected
Procedure: (§3) The binding kinetics of exemplary anti-CD79b/CD3 antibodies of the present invention for human CD79b, human CD3, and cynomolgus monkey CD3 were determined using surface plasmon resonance (Biacore T200). (1) Affinity assay of antibodies for human CD79b-his (Sino biological): 50 mM N-hydroxysuccinimide (NHS) and 200 mM 1-ethyl-3-(3-dimethylaminopropyl) carbodiimide hydrochloride (EDC) were freshly mixed and activated for 420 s at a flow rate of 10 μL/min. Human CD79b-His antigen was then diluted in 10 mM Acetate (pH 5.0), and after dilution to a concentration of 1 μg/mL, the antigen solution was subjected to coupling and the value was approximately 50 RU. Then 1 M ethanolamine was injected at a flow rate of 10 μL/min for 420 s to block the remaining activation sites. The buffer used in the experiment was HBS-EP+ solution at pH 7.4, and under a high performance mode, the antibodies obtained after 2-fold gradient dilution (0-80 nM) were each injected, according to an ascending order based on concentrations, into the channels 1, 2, 3 and 4 of the chip at a flow rate of 30 μL/min, wherein one cycle was used for determination of one concentration, the binding time was 180 s, and the dissociation time was 600 s. (2) Affinity assay of antibodies for human CD3E & CD3G-biotin (Sino biological) and monkey CD3E & CD3G-biotin (Sino biological): 50 mM NHS and 200 mM EDC were freshly mixed and activated for 420 s at a flow rate of 10 μL/min. Streptavidin (Thermo Fisher scientific) protein was then diluted in 10 mM Acetate (pH 4.5) and after dilution to a concentration of 10 μg/mL, the antigen solution was subjected to coupling and the value was approximately 3000 RU. Then 1 M ethanolamine was injected at a flow rate of 10 μL/min for 420 s to block the remaining activation sites. Human CD3E & CD3G-biotin and monkey CD3E & CD3G-biotin proteins were each immobilized on the chip channels coupled with Streptavidin protein. The antibodies (0-16 nM or 0-40 nM or 0-200 nM) obtained after 2-fold gradient dilution were each injected, according to an ascending order based on concentrations, into the channels 1, 2, 3 and 4 of the chip at a flow rate of 30 μL/min, wherein one cycle was used for determination of one concentration, the binding time was 180 s, and the dissociation time was 300 s.

[3] = target: T1, CD79b on the surface of B-cell …; assay: flow cytometry on WSU-DLCL2 cells, goat anti-human IgG PE
Procedure: as §1, §2

[4] = target: T4, human CD3E & CD3G-biotin (Sino biological) (human, UniProt P07766 23-126; P09693 23-116, limits assumed); assay: SPR (Biacore T200), biotinylated CD3E&CD3G on streptavidin chip, antibody injected
T4 construct: also called Human CD3E&G
Procedure: as §3

[5] = target: T3, human CD79b-his (Sino biological); assay: SPR (Biacore T200), CD79b-His coupled to chip, antibody injected
Procedure: as §3

T4 sequence (P07766 23-126 limits assumed, chain 1 of 2): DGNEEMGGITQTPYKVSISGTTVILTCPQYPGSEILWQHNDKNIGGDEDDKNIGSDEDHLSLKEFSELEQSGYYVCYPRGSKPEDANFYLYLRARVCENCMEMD
T4 sequence (P09693 23-116 limits assumed, chain 2 of 2): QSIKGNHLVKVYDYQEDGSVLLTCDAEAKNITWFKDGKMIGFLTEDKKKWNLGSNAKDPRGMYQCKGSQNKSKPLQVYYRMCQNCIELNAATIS

Binder	EC50 (read off the curve) [1]	Kd [2]	koff [2]	kon [2]	EC50 (read off the curve) [3]	Kd [4]	koff [4]	kon [4]	Kd [5]	koff [5]	kon [5]
38D9B3.11/sp34.87 (bispecific antibody, human IgG1, kappa, lambda, L234A L235A, 1+1 anti-CD79b x CD3 bispecific, IgG1 Fc with knob-in-hole and L234A/L235A; also called 38D9B3.11 x HzSP34.87) heavy 1: not shown light 1: EIVLTQSPATLSLSPGERATLSCKASQSVDHDVDSYMDWYQQKPGQAPRLLIYSASNLESGIPARFSGSGSGTDFTLTISSLEPEDFAVYYCQQINEYPYTFGGGTKVEIKRTVAAPSVFIFPPSDEQLKSGTASVVCLLNNFYPREAKVQWKVDNALQSGNSQESVTEQDSKDSTYSLSSTLTLSKADYEKHKVYACEVTHQGLSSPVTKSFNRGEC heavy 2: not shown light 2: QAVVTQEPSLTVSPGGTVTLTCRSSTGAVTTSNYANWVQQKPGQAPRGLIGGTNKRAPGVPARFSGSLLGDKAALTLLGAQPEDEAEYYCALWYSNLWVFGQGTKLTVLGQPKAAPSVTLFPPSSEELQANKATLVCLISDFYPGAVTVAWKADSSPVKAGVETTTPSKQSNNKYAASSYLSLTPEQWKSHRSYSCQVTHEGSTVEKTVAPTECS	~5 nM	253 nM	0.0275 s⁻¹	109000 M⁻¹ s⁻¹	~9 nM	119 nM	0.0368 s⁻¹	310000 M⁻¹ s⁻¹	1.66 nM	0.00031 s⁻¹	187000 M⁻¹ s⁻¹
11G10.9.p1/sp34.87 (bispecific antibody, human IgG1, kappa, lambda, L234A L235A, also called 11G10.9.p1 x HzSP34.87) heavy 1: not shown light 1: DIVMTQTPLSLSVTPGQPASISCKSSQSLLDSEGKTYLNWLLQKPGQSPQSLIYLVSKLDSGVPDRFSGSGSGTDFTLKISRVEAEDVGVYYCWQGTHFPLTFGGGTKVEIKRTVAAPSVFIFPPSDEQLKSGTASVVCLLNNFYPREAKVQWKVDNALQSGNSQESVTEQDSKDSTYSLSSTLTLSKADYEKHKVYACEVTHQGLSSPVTKSFNRGEC heavy 2: not shown light 2: QAVVTQEPSLTVSPGGTVTLTCRSSTGAVTTSNYANWVQQKPGQAPRGLIGGTNKRAPGVPARFSGSLLGDKAALTLLGAQPEDEAEYYCALWYSNLWVFGQGTKLTVLGQPKAAPSVTLFPPSSEELQANKATLVCLISDFYPGAVTVAWKADSSPVKAGVETTTPSKQSNNKYAASSYLSLTPEQWKSHRSYSCQVTHEGSTVEKTVAPTECS	~20 nM	202 nM	0.0336 s⁻¹	167000 M⁻¹ s⁻¹	~30 nM	107 nM	0.0331 s⁻¹	308000 M⁻¹ s⁻¹	4.5 nM	0.00208 s⁻¹	461000 M⁻¹ s⁻¹
34F1.14/sp34.87 (bispecific antibody, human IgG1, kappa, lambda, L234A L235A, also called 34F1.14 x HzSP34.87) heavy 1: not shown light 1: DVVMTQSPLSLPVTLGQPASISCKSSLSLLDSEGKTYLNWFQQRPGQSPRPLISLVSKLDSGVPDRFSGSGSGTDFTLKISRVEAEDVGVYYCWQGTHFPLTFGGGTKVEIKRTVAAPSVFIFPPSDEQLKSGTASVVCLLNNFYPREAKVQWKVDNALQSGNSQESVTEQDSKDSTYSLSSTLTLSKADYEKHKVYACEVTHQGLSSPVTKSFNRGEC heavy 2: not shown light 2: QAVVTQEPSLTVSPGGTVTLTCRSSTGAVTTSNYANWVQQKPGQAPRGLIGGTNKRAPGVPARFSGSLLGDKAALTLLGAQPEDEAEYYCALWYSNLWVFGQGTKLTVLGQPKAAPSVTLFPPSSEELQANKATLVCLISDFYPGAVTVAWKADSSPVKAGVETTTPSKQSNNKYAASSYLSLTPEQWKSHRSYSCQVTHEGSTVEKTVAPTECS		180 nM	0.032 s⁻¹	178000 M⁻¹ s⁻¹		92 nM	0.0315 s⁻¹	342000 M⁻¹ s⁻¹	7.03 nM	0.00207 s⁻¹	295000 M⁻¹ s⁻¹
11G10.9.p1/sp34.24 (bispecific antibody, human IgG1, kappa, lambda, L234A L235A, also called 11G10.9.p1 x HzSP34.24) heavy 1: not shown light 1: DIVMTQTPLSLSVTPGQPASISCKSSQSLLDSEGKTYLNWLLQKPGQSPQSLIYLVSKLDSGVPDRFSGSGSGTDFTLKISRVEAEDVGVYYCWQGTHFPLTFGGGTKVEIKRTVAAPSVFIFPPSDEQLKSGTASVVCLLNNFYPREAKVQWKVDNALQSGNSQESVTEQDSKDSTYSLSSTLTLSKADYEKHKVYACEVTHQGLSSPVTKSFNRGEC heavy 2: not shown light 2: QAVVTQEPSLTVSPGGTVTLTCRSSTGAVTTSNYANWVQQKPGQAPRGLIGGTNKRAPGVPARFSGSLLGDKAALTLLGAQPEDEAEYYCALWYSNLWVFGQGTKLTVLGQPKAAPSVTLFPPSSEELQANKATLVCLISDFYPGAVTVAWKADSSPVKAGVETTTPSKQSNNKYAASSYLSLTPEQWKSHRSYSCQVTHEGSTVEKTVAPTECS	~20 nM	10.7 nM	0.0061 s⁻¹	570000 M⁻¹ s⁻¹	~30 nM	6.25 nM	0.00531 s⁻¹	851000 M⁻¹ s⁻¹	2.16 nM	0.00176 s⁻¹	815000 M⁻¹ s⁻¹

Now from value to binder:

EC50 (read off the curve) [1]	Kd [2]	koff [2]	kon [2]	EC50 (read off the curve) [3]	Kd [4]	koff [4]	kon [4]	Kd [5]	koff [5]	kon [5]	Binder
~5 nM	10.9 nM	0.00656 s⁻¹	603000 M⁻¹ s⁻¹	~10 nM	6.19 nM	0.00565 s⁻¹	912000 M⁻¹ s⁻¹	0.787 nM	0.000268 s⁻¹	341000 M⁻¹ s⁻¹	38D9B3.11/sp34.24 (bispecific antibody, human IgG1, kappa, lambda, L234A L235A, also called 38D9B3.11 x HzSP34.24) heavy 1: not shown light 1: EIVLTQSPATLSLSPGERATLSCKASQSVDHDVDSYMDWYQQKPGQAPRLLIYSASNLESGIPARFSGSGSGTDFTLTISSLEPEDFAVYYCQQINEYPYTFGGGTKVEIKRTVAAPSVFIFPPSDEQLKSGTASVVCLLNNFYPREAKVQWKVDNALQSGNSQESVTEQDSKDSTYSLSSTLTLSKADYEKHKVYACEVTHQGLSSPVTKSFNRGEC heavy 2: not shown light 2: QAVVTQEPSLTVSPGGTVTLTCRSSTGAVTTSNYANWVQQKPGQAPRGLIGGTNKRAPGVPARFSGSLLGDKAALTLLGAQPEDEAEYYCALWYSNLWVFGQGTKLTVLGQPKAAPSVTLFPPSSEELQANKATLVCLISDFYPGAVTVAWKADSSPVKAGVETTTPSKQSNNKYAASSYLSLTPEQWKSHRSYSCQVTHEGSTVEKTVAPTECS
~60 nM	8.75 nM	0.00593 s⁻¹	678000 M⁻¹ s⁻¹		4.99 nM	0.00512 s⁻¹	1.03e+06 M⁻¹ s⁻¹	3.1 nM	0.00161 s⁻¹	519000 M⁻¹ s⁻¹	34F1.14/sp34.24 (bispecific antibody, human IgG1, kappa, lambda, L234A L235A, also called 34F1.14 x HzSP34.24) heavy 1: not shown light 1: DVVMTQSPLSLPVTLGQPASISCKSSLSLLDSEGKTYLNWFQQRPGQSPRPLISLVSKLDSGVPDRFSGSGSGTDFTLKISRVEAEDVGVYYCWQGTHFPLTFGGGTKVEIKRTVAAPSVFIFPPSDEQLKSGTASVVCLLNNFYPREAKVQWKVDNALQSGNSQESVTEQDSKDSTYSLSSTLTLSKADYEKHKVYACEVTHQGLSSPVTKSFNRGEC heavy 2: not shown light 2: QAVVTQEPSLTVSPGGTVTLTCRSSTGAVTTSNYANWVQQKPGQAPRGLIGGTNKRAPGVPARFSGSLLGDKAALTLLGAQPEDEAEYYCALWYSNLWVFGQGTKLTVLGQPKAAPSVTLFPPSSEELQANKATLVCLISDFYPGAVTVAWKADSSPVKAGVETTTPSKQSNNKYAASSYLSLTPEQWKSHRSYSCQVTHEGSTVEKTVAPTECS
